Assay results published in patent US20250002577A1 (ONCORESPONSE, published 2025).

Key:
human LILRB2 on cells [1] = target: T1, human LILRB2 on cells (human, UniProt Q8N423 22-597); assay: flow cytometry, LILRB2-HEK293T cells, AF647-labelled antibody
T1 construct: whole, on cells; also called hLILRB2; LILRB2-HEK293T
Protocol: While LILRB2 expression is mostly restricted to myeloid cells, LILRB1 has a broader expression on immune cell subsets, including B cells, T cells and NK cells.
Frozen cells were removed from storage in vapor phase liquid nitrogen and thawed by gentle swirling in a water bath at 37° C., then resuspended in DMEM media with 10% FBS. Cells were placed in a 15 mL conical tube and centrifuged at 300×g for 5 min, then supernatant was removed. Cells were resuspended in DMEM+10% FBS at a cell density of 2×10⁵ cells/mL in a T75 flask for culturing, and incubated at 37° C., 5% CO₂ for 3 days before passaging. Cells were passaged when the cell density reached 1×10⁶ cell/mL. On the day of the assay, cells were centrifuged, then supernatant was removed. Cells were resuspended in Blocking Buffer B (FACS Buffer containing 10% FBS and 0.5 mg/mL human IgG1 (Athens Research, No. 16-16-090707-1M)+0.05% NaN₃, 5% (w/v)) in a 15 mL conical tube, then incubated at 4° C. for 30 min. […] Cells were incubated with antibodies at 4° C. for 1 h. Cells were washed twice in FACS Buffer (PBS containing 2 mM EDTA+1% FBS+0.05% NaN₃) and then stained with for 10 min with Zombie Violet™ fixable viability dye (BioLegend, No. 423114) at RT, washed with FACS Buffer and resuspend in 75 μL of FACS Buffer for acquisition on a BD FACSymphony™ or BD FACSCanto™ II flow cytometer (BD Biosciences), as described in Example 6.

[2] = target: T2, human LILRA4 on HEK293-6E cells (human, UniProt P59901 24-499); assay: flow cytometry, HEK293-6E transfectants
T2 construct: whole, on cells; also called hLILRA4
Protocol: (§1) To determine that the parent chimera anti LILRB2/1 antibody specifically binds to LILRB2 and LILRB1 and not to other LILRB and LILRA family members, a cross-reactivity assay was performed. Cross-reactivity was assessed by antibody binding to transiently transfected HEK293-6E cells by flow cytometry. Binding was evaluated to HEK293-6E cells transiently transfected with human LILRB-1, -2, -3, -4, and 5 plasmids (Origene, Nos. RC219949, RC217935, RC211228, RC220932, RC206516) or to cells transiently transfected with human LILRA-1, -2, -4, -5, and -6 plasmids (Origene, Nos. RC210808, RC205626, RC220452, RC212310 RC212965). […] At a concentration of 1 μg/mL, no binding of B21A1 or the humanized variants to LILRB-3, -4, or -5 was observed (Table 7). Additionally, no binding to LILRA-1, -2, -4, -5, or -6 was observed, confirming the specificity of B21A1 and its humanized variants to LILRB1 and LILRB2 (Table 8).

[3] = target: T3, human LILRA5 on HEK293-6E cells (human, UniProt A6NI73 42-299); assay: flow cytometry, HEK293-6E transfectants
T3 construct: whole, on cells; also called hLILRA5
Protocol: as §1

[4] = target: T4, human LILRA1 on HEK293-6E cells (human, UniProt O75019 17-489); assay: flow cytometry, HEK293-6E transfectants
T4 construct: whole, on cells; also called hLILRA1
Protocol: as §1

human LILRB2 on cells [5] = target: T1, human LILRB2 on cells; assay: flow cytometry, HEK293-6E transfectants
Protocol: as §1

[6] = target: T5, human LILRB5 on HEK293-6E cells (human, UniProt O75023 24-590); assay: flow cytometry, HEK293-6E transfectants
T5 construct: whole, on cells; also called hLILRB5
Protocol: as §1

[7] = target: T6, human LILRA6 on HEK293-6E cells (human, UniProt Q6PI73 24-481); assay: flow cytometry, HEK293-6E transfectants
T6 construct: whole, on cells; also called hLILRA6
Protocol: as §1

[8] = target: T7, human LILRB4 on HEK293-6E cells (human, UniProt Q8NHJ6 22-448); assay: flow cytometry, HEK293-6E transfectants
T7 construct: whole, on cells; also called hLILRB4
Protocol: as §1

[9] = target: T8, human LILRA2 on HEK293-6E cells (human, UniProt Q8N149 24-483); assay: flow cytometry, HEK293-6E transfectants
T8 construct: whole, on cells; also called hLILRA2
Protocol: as §1

[10] = target: T9, human LILRB3 on HEK293-6E cells (human, UniProt O75022 24-631); assay: flow cytometry, HEK293-6E transfectants
T9 construct: whole, on cells; also called hLILRB3
Protocol: as §1

human LILRB1 on cells = target: T10, human LILRB1 on cells (human, UniProt Q8NHL6 24-650); assay: flow cytometry, HEK293-6E transfectants
T10 construct: whole, on cells; also called hLILRB1; LILRB1-expressing 721.221 cells
Protocol: as §1

[11] = target: T11, recombinant human LILRB1-His (human, UniProt Q8NHL6 24-458); assay: MSD ELISA, coated antigen, purified IgG1
T11 construct: Bought protein; also called LILRB1 protein
Protocol: (§2) Recombinant human and cynomolgus LILRB1 proteins (R&D Systems, No. 8989-T2-050; ACROBiosystems, No. CDJ-C52H3) and recombinant human and cynomolgus LILRB2 proteins (ACROBiosystems, No. LI2-H5220; No. L12-C52H3) were diluted in PBS to 4 μg/mL and added to a multi-array 384-well high-binding plates (MSD, No. L21XA4) at 10 μL/well and incubated at 4° C. overnight. The plates were washed several times with Wash Buffer (0.05% Tween® 20 in PBS), using a microplate washer and then blocked with 70 μL/well of 5% BSA in PBS for 1 hour (h) at room temperature (RT) with shaking at 700 rpm. After blocking, 20 μL/well of anti-LILRB2/LILRB1 antibodies or isotype control were added to the plates, and the plates were sealed and incubated for 2 h at RT with shaking at 700 rpm. After primary antibody binding, plates were washed five times with 70 μL/well of Wash Buffer (0.05% Tween® 20 in PBS) using a microplate washer. Secondary detection antibody (SULFO-TAG™-labeled goat anti-human IgG antibody (MSD, No. R32AJ-1)) was diluted to 4 μg/mL in assay diluent (1% BSA in PBS) and 10 μL/well was added to plates and incubated at RT protected from light for 1 h, with shaking at 700 rpm. Following incubation, plates were washed five times with Wash Buffer, using a microplate washer. After removal of the final wash, 35 μL/well of MSD Gold Read Buffer B (MSD, No. R60AM-4) was added to all wells using a Multidrop combo washer/dispenser, and plates were read using MESO Sector 600MM instrument (MSD) within 5 minutes (min) after addition of Read Buffer. Signals as counts per minute (cpm) were recorded. EC₅₀ values were calculated using GraphPad Prism based on log concentration of the primary antibodies versus cpm values.

[12] = target: T12, recombinant human LILRB2-His (human, UniProt Q8N423 22-461, limits assumed); assay: MSD ELISA, coated antigen, purified IgG1
T12 construct: Bought protein; also called LILRB2 protein
Protocol: as §2

T6 sequence (Q6PI73 24-481): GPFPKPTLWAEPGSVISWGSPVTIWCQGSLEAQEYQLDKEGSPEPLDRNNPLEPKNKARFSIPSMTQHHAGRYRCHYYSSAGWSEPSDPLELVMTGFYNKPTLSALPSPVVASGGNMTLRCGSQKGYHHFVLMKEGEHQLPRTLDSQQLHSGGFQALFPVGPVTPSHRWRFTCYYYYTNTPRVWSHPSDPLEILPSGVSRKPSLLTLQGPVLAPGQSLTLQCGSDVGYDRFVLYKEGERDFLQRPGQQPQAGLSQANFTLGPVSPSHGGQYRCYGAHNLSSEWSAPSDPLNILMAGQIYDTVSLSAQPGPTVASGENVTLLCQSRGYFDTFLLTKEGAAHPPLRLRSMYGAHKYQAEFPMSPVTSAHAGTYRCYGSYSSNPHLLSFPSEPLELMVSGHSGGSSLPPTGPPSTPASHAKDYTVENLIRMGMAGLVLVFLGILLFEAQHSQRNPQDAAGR
T11 sequence (Q8NHL6 24-458 limits assumed): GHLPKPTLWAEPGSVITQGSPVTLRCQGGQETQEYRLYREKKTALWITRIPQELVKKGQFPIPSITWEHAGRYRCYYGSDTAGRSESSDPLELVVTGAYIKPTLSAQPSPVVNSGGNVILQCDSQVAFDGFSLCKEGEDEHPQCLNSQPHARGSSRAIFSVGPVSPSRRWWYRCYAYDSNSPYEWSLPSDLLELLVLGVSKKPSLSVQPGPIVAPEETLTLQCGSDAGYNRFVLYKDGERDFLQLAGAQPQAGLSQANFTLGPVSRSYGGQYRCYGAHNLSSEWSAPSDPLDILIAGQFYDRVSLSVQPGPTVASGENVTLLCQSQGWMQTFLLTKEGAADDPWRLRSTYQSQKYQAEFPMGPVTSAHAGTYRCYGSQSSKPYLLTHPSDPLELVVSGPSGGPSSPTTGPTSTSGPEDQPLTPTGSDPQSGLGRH
T9 sequence (O75022 24-631): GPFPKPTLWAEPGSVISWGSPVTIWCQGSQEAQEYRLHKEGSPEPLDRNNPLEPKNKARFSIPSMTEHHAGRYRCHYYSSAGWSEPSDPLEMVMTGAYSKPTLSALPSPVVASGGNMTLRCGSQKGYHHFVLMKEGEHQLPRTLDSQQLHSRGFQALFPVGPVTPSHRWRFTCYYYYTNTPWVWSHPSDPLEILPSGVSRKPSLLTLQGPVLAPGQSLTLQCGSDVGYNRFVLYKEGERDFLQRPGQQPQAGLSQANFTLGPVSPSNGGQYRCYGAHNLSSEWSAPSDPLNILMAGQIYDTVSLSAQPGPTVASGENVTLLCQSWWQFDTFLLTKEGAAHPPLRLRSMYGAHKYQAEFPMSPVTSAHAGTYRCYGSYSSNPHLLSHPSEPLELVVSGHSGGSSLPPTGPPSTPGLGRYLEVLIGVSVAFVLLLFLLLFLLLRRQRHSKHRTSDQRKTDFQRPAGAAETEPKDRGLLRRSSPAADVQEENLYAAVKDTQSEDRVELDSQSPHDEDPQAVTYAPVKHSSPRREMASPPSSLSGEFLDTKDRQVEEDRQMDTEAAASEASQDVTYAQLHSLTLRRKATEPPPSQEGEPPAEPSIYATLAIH
T5 sequence (O75023 24-590): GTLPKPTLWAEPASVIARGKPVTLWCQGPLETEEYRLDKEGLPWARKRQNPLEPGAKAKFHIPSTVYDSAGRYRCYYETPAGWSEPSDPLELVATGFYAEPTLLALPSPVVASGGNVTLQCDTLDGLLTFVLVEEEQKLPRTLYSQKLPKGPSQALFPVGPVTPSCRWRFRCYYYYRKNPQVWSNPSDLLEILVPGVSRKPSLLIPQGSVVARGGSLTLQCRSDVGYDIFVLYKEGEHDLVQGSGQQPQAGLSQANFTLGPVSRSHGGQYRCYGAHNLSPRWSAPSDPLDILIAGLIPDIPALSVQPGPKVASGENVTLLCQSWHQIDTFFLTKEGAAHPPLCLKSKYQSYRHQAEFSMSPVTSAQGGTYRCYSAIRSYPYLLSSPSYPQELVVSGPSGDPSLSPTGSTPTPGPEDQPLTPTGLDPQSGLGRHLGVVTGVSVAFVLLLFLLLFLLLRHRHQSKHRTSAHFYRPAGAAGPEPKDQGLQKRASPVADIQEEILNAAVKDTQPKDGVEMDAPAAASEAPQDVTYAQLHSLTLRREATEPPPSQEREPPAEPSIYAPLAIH
T3 sequence (A6NI73 42-299): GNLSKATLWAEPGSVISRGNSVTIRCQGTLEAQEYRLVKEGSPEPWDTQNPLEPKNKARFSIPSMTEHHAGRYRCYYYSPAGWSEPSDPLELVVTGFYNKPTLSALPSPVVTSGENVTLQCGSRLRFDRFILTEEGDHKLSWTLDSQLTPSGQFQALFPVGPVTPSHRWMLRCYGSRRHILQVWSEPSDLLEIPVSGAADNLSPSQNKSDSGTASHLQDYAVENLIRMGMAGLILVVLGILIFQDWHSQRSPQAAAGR
T2 sequence (P59901 24-499): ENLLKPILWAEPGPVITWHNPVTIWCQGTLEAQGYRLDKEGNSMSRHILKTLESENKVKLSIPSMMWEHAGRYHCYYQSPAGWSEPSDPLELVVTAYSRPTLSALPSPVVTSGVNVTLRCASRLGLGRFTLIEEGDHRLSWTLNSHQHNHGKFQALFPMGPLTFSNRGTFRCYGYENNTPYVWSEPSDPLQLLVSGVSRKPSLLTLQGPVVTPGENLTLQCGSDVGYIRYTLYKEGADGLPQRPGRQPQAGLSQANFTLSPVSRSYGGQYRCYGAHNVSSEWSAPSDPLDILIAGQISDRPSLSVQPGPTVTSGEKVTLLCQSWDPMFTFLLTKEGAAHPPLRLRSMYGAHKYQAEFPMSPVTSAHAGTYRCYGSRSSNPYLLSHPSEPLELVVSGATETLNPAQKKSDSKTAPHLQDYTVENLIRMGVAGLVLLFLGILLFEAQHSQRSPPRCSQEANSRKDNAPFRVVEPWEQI
T4 sequence (O75019 17-489): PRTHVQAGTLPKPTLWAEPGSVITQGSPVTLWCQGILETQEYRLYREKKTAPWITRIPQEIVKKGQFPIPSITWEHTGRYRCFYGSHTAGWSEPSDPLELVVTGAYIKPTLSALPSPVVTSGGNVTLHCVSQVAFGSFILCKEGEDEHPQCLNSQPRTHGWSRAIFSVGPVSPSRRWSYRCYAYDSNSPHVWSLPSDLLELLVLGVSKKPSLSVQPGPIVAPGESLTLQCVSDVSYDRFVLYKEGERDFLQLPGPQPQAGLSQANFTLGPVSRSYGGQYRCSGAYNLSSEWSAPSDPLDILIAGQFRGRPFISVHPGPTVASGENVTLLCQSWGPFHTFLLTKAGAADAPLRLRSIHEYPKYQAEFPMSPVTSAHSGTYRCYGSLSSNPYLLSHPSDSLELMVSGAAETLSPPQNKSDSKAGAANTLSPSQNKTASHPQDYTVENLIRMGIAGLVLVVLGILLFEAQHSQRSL
T8 sequence (Q8N149 24-483): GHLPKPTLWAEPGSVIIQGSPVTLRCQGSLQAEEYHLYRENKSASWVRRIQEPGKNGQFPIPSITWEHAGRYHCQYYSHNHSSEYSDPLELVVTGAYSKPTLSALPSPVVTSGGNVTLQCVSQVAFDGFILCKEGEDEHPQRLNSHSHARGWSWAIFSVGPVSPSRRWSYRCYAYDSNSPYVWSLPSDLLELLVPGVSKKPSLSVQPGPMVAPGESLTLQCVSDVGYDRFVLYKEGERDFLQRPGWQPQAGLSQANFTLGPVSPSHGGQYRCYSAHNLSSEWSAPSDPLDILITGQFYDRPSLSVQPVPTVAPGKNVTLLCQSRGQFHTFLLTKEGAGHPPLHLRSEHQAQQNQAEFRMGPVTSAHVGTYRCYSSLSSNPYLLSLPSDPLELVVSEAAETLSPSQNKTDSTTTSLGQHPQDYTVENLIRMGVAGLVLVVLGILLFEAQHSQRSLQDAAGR
T10 sequence (Q8NHL6 24-650): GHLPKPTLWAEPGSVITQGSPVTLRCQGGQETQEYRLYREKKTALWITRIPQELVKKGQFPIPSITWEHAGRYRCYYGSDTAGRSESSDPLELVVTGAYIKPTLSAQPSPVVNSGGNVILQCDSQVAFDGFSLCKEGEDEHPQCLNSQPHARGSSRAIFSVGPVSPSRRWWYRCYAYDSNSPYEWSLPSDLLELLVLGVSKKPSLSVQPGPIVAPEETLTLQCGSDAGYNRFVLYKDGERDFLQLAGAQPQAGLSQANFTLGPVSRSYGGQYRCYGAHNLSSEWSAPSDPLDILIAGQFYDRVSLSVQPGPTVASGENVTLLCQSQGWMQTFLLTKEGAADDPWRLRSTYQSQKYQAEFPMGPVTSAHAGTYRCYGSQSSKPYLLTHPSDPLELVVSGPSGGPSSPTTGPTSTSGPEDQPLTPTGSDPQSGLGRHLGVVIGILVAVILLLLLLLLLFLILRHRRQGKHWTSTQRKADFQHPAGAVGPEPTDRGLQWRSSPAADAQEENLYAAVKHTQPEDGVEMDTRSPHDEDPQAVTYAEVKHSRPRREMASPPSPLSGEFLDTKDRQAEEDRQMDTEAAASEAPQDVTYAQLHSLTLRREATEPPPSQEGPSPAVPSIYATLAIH
T1 sequence (Q8N423 22-597): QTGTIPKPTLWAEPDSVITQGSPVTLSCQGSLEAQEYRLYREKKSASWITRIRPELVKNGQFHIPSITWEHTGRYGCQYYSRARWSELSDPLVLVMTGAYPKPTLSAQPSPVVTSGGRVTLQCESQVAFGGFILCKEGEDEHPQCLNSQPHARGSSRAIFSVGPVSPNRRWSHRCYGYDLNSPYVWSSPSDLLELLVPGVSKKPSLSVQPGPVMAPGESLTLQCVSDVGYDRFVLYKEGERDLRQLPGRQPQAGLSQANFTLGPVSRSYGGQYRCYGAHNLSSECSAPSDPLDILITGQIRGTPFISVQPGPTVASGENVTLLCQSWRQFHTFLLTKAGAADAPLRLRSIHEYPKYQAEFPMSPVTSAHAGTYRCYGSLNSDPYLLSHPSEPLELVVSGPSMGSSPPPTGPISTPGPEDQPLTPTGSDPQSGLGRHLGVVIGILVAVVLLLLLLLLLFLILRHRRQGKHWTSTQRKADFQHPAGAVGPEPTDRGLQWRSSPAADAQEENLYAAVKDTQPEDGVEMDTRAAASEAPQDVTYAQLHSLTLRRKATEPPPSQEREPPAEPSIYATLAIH

EC50 (human LILRB2 on cells [1]) [ng/mL] | MFI [2] [MFI] | binding result [2] | MFI [3] [MFI] | binding result [3] | MFI [4] [MFI] | binding result [4] | MFI (human LILRB2 on cells [5]) [MFI] | MFI [6] [MFI] | binding result [6] | MFI [7] [MFI] | binding result [7] | MFI [8] [MFI] | binding result [8] | MFI [9] [MFI] | binding result [9] | MFI [10] [MFI] | binding result [10] | MFI (human LILRB1 on cells) [MFI] | EC50 [11] [ng/mL] | Binder | also measured
1.25 | 134 | no binding (tested: 1 µg/mL) | 74.6 | no binding (tested: 1 µg/mL) | 345 | no binding (tested: 1 µg/mL) | 5630 | 92.8 | no binding (tested: 1 µg/mL) | 147 | no binding (tested: 1 µg/mL) | 30.9 | no binding (tested: 1 µg/mL) | 27.1 | no binding (tested: 1 µg/mL) | 97 | no binding (tested: 1 µg/mL) | 1160 | 9.19 | B21H1-42 (antibody, human IgG1, kappa, humanized IgG1/kappa, VH4+VL2) heavy: not shown light: DIQMTQSPSSLSASVGDRVTITCQASGNIYSFLAWYQQKPGKVPKLLIYTASNLETGVPSRFSGSGSGTDYTLTISSLQSEDAATYYCLGGLYSSDVSYAFGGGTKVVIKRTVAAPSVFIFPPSDEQLKSGTASVVCLLNNFYPREAKVQWKVDNALQSGNSQESVTEQDSKDSTYSLSSTLTLSKADYEKHKVYACEVTHQGLSSPVTKSFNRGEC | EC50 [12]: 28.4 ng/mL
1.07 | 132 | no binding (tested: 1 µg/mL) | 76.7 | no binding (tested: 1 µg/mL) | 295 | no binding (tested: 1 µg/mL) | 5590 | 91.4 | no binding (tested: 1 µg/mL) | 140 | no binding (tested: 1 µg/mL) | 29.9 | no binding (tested: 1 µg/mL) | 27.6 | no binding (tested: 1 µg/mL) | 90.1 | no binding (tested: 1 µg/mL) | 914 | 8.18 | B21H1-22 (antibody, human IgG1, kappa, humanized IgG1/kappa, VH2+VL2) heavy: not shown light: DIQMTQSPSSLSASVGDRVTITCQASGNIYSFLAWYQQKPGKVPKLLIYTASNLETGVPSRFSGSGSGTDYTLTISSLQSEDAATYYCLGGLYSSDVSYAFGGGTKVVIKRTVAAPSVFIFPPSDEQLKSGTASVVCLLNNFYPREAKVQWKVDNALQSGNSQESVTEQDSKDSTYSLSSTLTLSKADYEKHKVYACEVTHQGLSSPVTKSFNRGEC | EC50 [12]: 25.3 ng/mL

Further lines, the binder ahead of its results:

Binder | EC50 (human LILRB2 on cells [1]) [ng/mL] | MFI [2] [MFI] | binding result [2] | MFI [3] [MFI] | binding result [3] | MFI [4] [MFI] | binding result [4] | MFI (human LILRB2 on cells [5]) [MFI] | MFI [6] [MFI] | binding result [6] | MFI [7] [MFI] | binding result [7] | MFI [8] [MFI] | binding result [8] | MFI [9] [MFI] | binding result [9] | MFI [10] [MFI] | binding result [10] | MFI (human LILRB1 on cells) [MFI] | EC50 [11] [ng/mL] | also measured
B21H1-23 (antibody, human IgG1, kappa, humanized IgG1/kappa, VH2+VL3) heavy: not shown light: DIVMTQSPSSVSASVGDRVTITCQASGNIYSFLAWYQQKPGKAPKLLIYTASNLETGVPSRFSGSGSGTDFTLTISSLQPEDFATYYCLGGLYSSDVSYAFGGGTKVVIKRTVAAPSVFIFPPSDEQLKSGTASVVCLLNNFYPREAKVQWKVDNALQSGNSQESVTEQDSKDSTYSLSSTLTLSKADYEKHKVYACEVTHQGLSSPVTKSFNRGEC | 1.63 | 136 | no binding (tested: 1 µg/mL) | 75.3 | no binding (tested: 1 µg/mL) | 210 | no binding (tested: 1 µg/mL) | 5430 | 92 | no binding (tested: 1 µg/mL) | 140 | no binding (tested: 1 µg/mL) | 30.1 | no binding (tested: 1 µg/mL) | 27.5 | no binding (tested: 1 µg/mL) | 96.2 | no binding (tested: 1 µg/mL) | 1060 | 8.64 | EC50 [12]: 30.7 ng/mL
B21H1-13 (antibody, human IgG1, kappa, humanized IgG1/kappa, VH1+VL3) heavy: not shown light: DIVMTQSPSSVSASVGDRVTITCQASGNIYSFLAWYQQKPGKAPKLLIYTASNLETGVPSRFSGSGSGTDFTLTISSLQPEDFATYYCLGGLYSSDVSYAFGGGTKVVIKRTVAAPSVFIFPPSDEQLKSGTASVVCLLNNFYPREAKVQWKVDNALQSGNSQESVTEQDSKDSTYSLSSTLTLSKADYEKHKVYACEVTHQGLSSPVTKSFNRGEC | 2.23 | 130 | no binding (tested: 1 µg/mL) | 75.7 | no binding (tested: 1 µg/mL) | 201 | no binding (tested: 1 µg/mL) | 5370 | 89.8 | no binding (tested: 1 µg/mL) | 142 | no binding (tested: 1 µg/mL) | 29.1 | no binding (tested: 1 µg/mL) | 25.8 | no binding (tested: 1 µg/mL) | 84.7 | no binding (tested: 1 µg/mL) | 1000 | 5.45 | EC50 [12]: 20.3 ng/mL
